Laboratory results from paper PMC5141474, “Diverse specificity of cellulosome attachment to the bacterial cell surface” (Scientific Reports, 2016).

T1: C. thermocellum ScaF Coh (type-II cohesin of anchoring scaffoldin ScaF), expressed on its own (Clostridium thermocellum, UniProt P71143 29-200)
T1 construct: single type-II cohesin of anchoring scaffoldin ScaF of Clostridium thermocellum (the Coh of PDB 2b59 and 2bm3); also called CohScaF; source: E. coli BL21 (DE3), pET28a, purified (IMAC)
T1 sequence (looked up): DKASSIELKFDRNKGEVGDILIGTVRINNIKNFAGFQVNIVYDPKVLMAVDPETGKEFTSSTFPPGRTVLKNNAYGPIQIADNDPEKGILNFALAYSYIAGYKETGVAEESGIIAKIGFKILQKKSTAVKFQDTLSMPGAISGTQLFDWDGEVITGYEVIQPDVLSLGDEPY


Tests used:
Test in all cases: ITC; VP-ITC, 318.15 K; Doc in the cell, Coh injected (28 x 10 uL); single site-binding model; proteins in 50 mM HEPES pH 7.5, 2 mM CaCl2, 0.5 mM TCEP
[1] = molecular target: C. thermocellum CipB XDoc (X-module and type-II dockerin of CipB), expressed on its own (Clostridium thermocellum) (UniProt A3DGE8)
[2] = molecular target: C. thermocellum CipB XDoc M114A (Clostridium thermocellum)
[3] = molecular target: C. thermocellum CipB XDoc I154A (Clostridium thermocellum)
[4] = molecular target: C. thermocellum CipB XDoc M118A (Clostridium thermocellum)
[5] = molecular target: C. thermocellum CipB XDoc S121A (Clostridium thermocellum)
[6] = molecular target: C. thermocellum CipB XDoc F148A (Clostridium thermocellum)
[7] = molecular target: T1, C. thermocellum ScaF Coh (type-II …); conditions: both partners purified

Molecule	Ka [1]	dH [1]	stoichiometry N [1]	Ka [2]	dH [2]	stoichiometry N [2]	Ka [3]	dH [3]	stoichiometry N [3]	Ka [4]	dH [4]	stoichiometry N [4]	Ka [5]	dH [5]	stoichiometry N [5]	Ka [6]	dH [6]	stoichiometry N [6]	Ka [7]
C. thermocellum ScaE6 Coh (type-II cohesin of scaffoldin ScaE) (domain or fragment)	1.21e+07 M⁻¹	-8.27 kcal/mol	1	7.17e+06 M⁻¹	-13 kcal/mol	1.01	1.08e+07 M⁻¹	-17.3 kcal/mol	1.03	6.96e+06 M⁻¹	-25.5 kcal/mol	0.99	9.16e+06 M⁻¹	-6.93 kcal/mol	1.01	–	–	–	–
C. thermocellum ScaC2 Coh (type-II cohesin of anchoring scaffoldin ScaC), expressed on its own (domain or fragment)	> 1e+09 M⁻¹	-12.4 kcal/mol	–	–	-10.4 kcal/mol	–	1.2e+06 M⁻¹	-9.75 kcal/mol	1.02	–	-8.66 kcal/mol	–	–	-10.3 kcal/mol	–	619000 M⁻¹	-8.83 kcal/mol	1.01	–
C. thermocellum CipB XDoc (X-module and type-II dockerin of CipB), expressed on its own (domain or fragment, Clostridium thermocellum, CipB (ORF Cthe_1806, 2177 amino acids) of Clostridium thermocellum: X-module and C-terminal type-II dockerin (XDoc); numbers count on: the recombinant XDoc chain (X-module 1-98, Doc 99-164); also called XDocCipB; CipB type-II Doc; source: E. coli Tuner (DE3), pET21a, purified (IMAC)) NNDSTDKTTVSGYISVDFDYPPESESKIKSGFNVKVAGTELSTKTDEKGYFEISGIPGDMREFTLEISKRNYLKRNVTVNGTGKLVVSTEDNPLILWAGDVERKGVQDNAINMVDVMEISKVFGTRAGDEEYVAELDLNMDGAINLFDIAIVIRHFNALPSRY	–	–	–	–	–	–	–	–	–	–	–	–	–	–	–	–	–	–	> 1e+09 M⁻¹
